From publication doi:10.1101/2022.01.26.477835 (bioRxiv, 2022)

Biological target: His fused LCK (His-LCK) (human, UniProt P06239 1-509)
Test: pull-down

Chain of His fused LCK (His-LCK) (P06239 whole entry, the tested form may be a part): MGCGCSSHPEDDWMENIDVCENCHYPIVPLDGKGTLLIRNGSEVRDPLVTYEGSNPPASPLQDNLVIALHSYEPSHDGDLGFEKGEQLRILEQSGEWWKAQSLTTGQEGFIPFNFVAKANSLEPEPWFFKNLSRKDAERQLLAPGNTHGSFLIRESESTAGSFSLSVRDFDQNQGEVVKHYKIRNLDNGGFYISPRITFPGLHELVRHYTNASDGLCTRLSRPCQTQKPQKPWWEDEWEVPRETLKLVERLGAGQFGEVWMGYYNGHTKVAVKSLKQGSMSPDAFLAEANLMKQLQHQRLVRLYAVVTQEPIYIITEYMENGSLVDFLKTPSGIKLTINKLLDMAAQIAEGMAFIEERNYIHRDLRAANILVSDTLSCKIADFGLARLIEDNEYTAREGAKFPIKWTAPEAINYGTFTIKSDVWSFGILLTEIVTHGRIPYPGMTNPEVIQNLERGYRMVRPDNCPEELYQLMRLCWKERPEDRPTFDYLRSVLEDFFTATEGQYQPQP

B1: GST-tagged C-terminus of TRPM8 (GST-M8C) (domain or fragment, rat, UniProt Q8R455 980-1104, looked up)
chain: GYTVGIVQENNDQVWKFQRYFLVQEYCNRLNIPFPFVVFAYFYMVVKKCFKCCCKEKNTESSACCFRNEDNETLAWEGVMKENYLVKINTKANDNAEEMRHRFRQLDTKLNDLKGLLKEIANKIK
- binding result: binds
